What was measured:
[1] = molecular target: T1, mouse 4-1BB protein (extracellular domain) (mouse, UniProt P20334 24-187); assay: ELISA, coated mouse 4-1BB; Ab 2 ug/ml
T1 construct: extracellular domain; also called mouse 4-1BB-his; mouse 4-1BB-hFc protein
T1 sequence (looked up): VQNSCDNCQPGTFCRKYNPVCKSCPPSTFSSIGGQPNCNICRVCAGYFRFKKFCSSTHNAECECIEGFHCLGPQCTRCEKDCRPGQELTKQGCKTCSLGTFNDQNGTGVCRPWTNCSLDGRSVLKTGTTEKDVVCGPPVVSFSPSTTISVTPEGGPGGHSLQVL
Method: The purified immunogen A (4-1BB-hFc), monkey 4-1BB-his, and mouse 4-1BB-his obtained in Example 1 [for the preparation method, see step 1 of Example 1, preparation of immunogen A], of which the extracellular domain of monkey-derived 4-1BB protein (purchased from ACRO biosystems), the extracellular domain of mouse 4-1BB protein (purchased from sino biological) or other immune detection point proteins respectively were diluted with PBS to a final concentration of 1.0 μg/mL, then added with […] per well to 96-well ELISA plate. It was sealed with plastic film and incubated at 4° C. overnight. The next day, the plate was washed twice with the plate-washing solution [PBS containing 0.01% (v/v) Tween20] and blocking solution [PBS containing 0.01% (v/v) Tween 20 and 1% (v/v) BSA] was added and blocked at room temperature for 2 hours. The blocking solution was discarded and 100 μl of the purified 4-1BB antibody obtained in Example 2 was added per well. After incubated at 37° C. for 2 hours, the plate was washed 3 times with a plate-washing solution [PBS containing 0.01% (v/v) Tween20]. A secondary antibody (purchased from Sigma) labeled with HRP (horseradish peroxidase) was added, and after incubated at 37° C. for 2 hours, the plate was washed 3 times with a plate-washing solution [PBS containing 0.01% (v/v) Tween20]. 100 μl of TMB substrate was added per well. After incubated for 30 minutes at room temperature, 100 μl of stop buffer (1.0N HCl) was added per well. The A450 nm values were read using an ELISA plate reader (SpectraMax 384plus, Molecular Device).

[2] = molecular target: T2, monkey 4-1BB on CHOK1 cells (monkey); assay: FACS on CHOK1-c4-1BB cells, Alexa 488 secondary antibody, average fluorescence intensity
T2 construct: whole, on cells; also called CHOK1-c4-1BB
Excerpt: The pIRES plasmid carrying the full-length gene of monkey-derived […] (the preparation method is the same as the preparation method of the pCpC vector carrying the human-derived IgG Fc fragment (hFc) in “Preparation of immunogen A” of the step (1) in Example 1, in which the database accession number of the amino acid sequence of the extracellular region of monkey 4-1BB protein (Phe19-Thr239) is G7PSE7) was transfected into CHOK1 cell line to obtain CHOK1 stable transfected cell line containing monkey 4-1BB (herein referred to as CHOK1-c4-1BB stable cell line). The CHOK1-h4-1BB stable cell line and the CHOK1-c4-1BB stable cell line were expanded and cultivated to 90% confluence in T-75 cell culture flasks. The medium was exhausted, and washed twice with HBSS buffer (Hanks Balanced Salt Solution, purchased from Invitrogen), and then the cells were treated and collected with enzyme-free cell dissociation solution (Versene solution, purchased from Life Technology). The cells were washed twice with HBSS buffer, and after cell counting, the cells were diluted with HBSS buffer to 2×10⁶ cells per ml, and 1% goat serum blocking solution was added, the percentage being the mass percentage. It was incubated on ice for 30 minutes, and then washed twice with HBSS buffer by centrifugation. The collected cells were suspended in FACS buffer (HBSS containing 1% BSA, the percentage was the mass percentage) to 2×10⁶ cells/mL, and 100 μl per well was added to a 96-well FACS reaction plate. The purified 4-1BB antibody test sample obtained in Example 2 was added, 100 microliters per well and incubated on ice for 2 hours. […] It was washed three times with FACS buffer by centrifugation, and 100 μl of fixative [4% (v/v) paraformaldehyde] per well was added to suspend cells, and washed twice with FACS buffer after 10 minutes by centrifugation. The cells were suspended with 100 microliters of FACS buffer, and the results were detected and analyzed with FACS (FACS Calibur, purchased from BD).

[3] = molecular target: T3, human 4-1BB, full length, on transfected cells (human, UniProt Q07011 24-255); assay: FACS blocking assay on CHOK1-h4-1BB cells: antibody titrated against his-muCD8a-4-1BBL, bound ligand detected with Alexa 488 anti-mouse CD8a; inhibition rate (%) relative to human IgG
T3 construct: whole, on cells; also called CHOK1-h4-1BB
T3 sequence (Q07011 24-255): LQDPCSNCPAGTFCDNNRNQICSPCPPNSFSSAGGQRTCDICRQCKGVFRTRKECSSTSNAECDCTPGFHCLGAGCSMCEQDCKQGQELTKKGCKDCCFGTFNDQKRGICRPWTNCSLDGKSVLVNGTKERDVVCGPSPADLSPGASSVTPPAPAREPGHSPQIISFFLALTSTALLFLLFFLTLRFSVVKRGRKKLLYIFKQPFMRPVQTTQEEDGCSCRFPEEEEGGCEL
Method: It was washed three times with FACS buffer by centrifugation, and 100 μl of fixative [4% (v/v) paraformaldehyde] per well was added to suspend cells, and it was washed twice with FACS buffer by centrifugation after 10 minutes. The cells were suspended with 100 microliters of FACS buffer, and the results were detected and analyzed with FACS (FACS Calibur, purchased from BD). […] The IgG control is human IgG, and the data in the table is the inhibition rate of the ligand binding by the fully human 4-1BB antibody relative to the control group (human IgG).

[4] = molecular target: T3, human 4-1BB, full length, on …; assay: cell-based or functional assay
[5] = molecular target: T4, his-tagged human 4-1BB protein antigen (human, UniProt Q07011 24-186); assay: SPR (Biacore T200), antibody captured on anti-human Fc, his-tagged human 4-1BB as analyte
T4 construct: not shown: his tag
Excerpt: The Biacore T200 instrument (purchased) was used to determine the affinity constant. The specific operation and method were based on the instrument manual and the detailed method provided by the manufacturer. Sensors labeled with anti-human Fc were combined with anti-4-1BB fully human antibodies to detect the binding and dissociation of five different gradients of his-tagged human 4-1BB protein antigen. Then software was used to fit the dissociation constant and the binding constant. The affinity constant is the ratio of the dissociation constant and the binding constant.

B1: 172E3E3 (antibody, V domains shown)
VH: QVQLQESGPGLVKPSGTLSLTCAVSGGSISSSNWWSWVRQPPGKGLEWIGEIYHSGSTNYNPSLKSRVTISVDKSKNQLSLNLSSVTAADTAVYYCARQGGVAGTLYWYFDLWGRGTLVTVSS
VL: DIVMTQSPLSLPVTPGEPASISCRSSQGLLHSNGYNYLDWYLQKPGQSPQLLIYLGSNRASGVPDRFIGSGSGTDFTLKIRRVEAEDVGVYYCMQVLQTPWTFGQGTKVEIK
- OD450 nm [1]: 0.12 OD450 nm

B2: 170D7F2 (antibody, V domains shown)
VH: QVQLVQSGAEVKKPGASVKVSCKASGYTFTSYDINWVRQATGQGLEWMGWMNPNSGNTGYAQKFQGRVTMTRNTSISTAYMELSSLRSEDTAVYYCARETGPFDYWGQGTLVTVSS
VL: DIQMTQSPSSLSASVGDRVTITCRASQRINNYLNWYQQKPGKAPKLLIYGASSLQSGVPSRFSGSGSGTDFTLTISSLQPEDFATYYCQQSYSTPFTFGPGTKVDIK
- OD450 nm [1]: 0.11 OD450 nm

B3: 182A5B3 (antibody, V domains shown)
VH: QVQLVQSGAEVKKPGASVKVSCKASGYTFTSYDINWVRQATGQGLEWMGWMNPNSGNTGYVQKFQGRVTMTRNTSISTAYMELSSLRSEDTAVYYCARETGPFDYWGQGTLVTVSS
VL: not shown
- EC50 (read off the curve) [2]: ~0.4 µg/mL

B4: 57B3D10 (antibody, V domains shown)
VH: QVQLQESGPGLVKPSETLSLTCTVSGGSISSYYWSWIRQPPGKGLEWIGYIYYSGSTNYNPSLKSRVTISVDTSKSQFSLKLTSVTAADTAVYYCAKDSDYYGSGSYSYWYFDLWGRGTLVTVSS
VL: EIVMTQSPATLSVSPGERATLSCRASQSVSSNLAWYQQKPGQAPRLLIYGASTRAPGIPARFSGSGSGTEFTLTISSLQSEDFAVYYCQQYNNWPLTFGGGTKVEIK
notes: also called 4-1BB fully human antibody 57B3D10
- IC50 (read off the curve) [3]: ~2 µg/mL
- NFκB luciferase reporter, 4-1BB+ HEK293; EC50; cross-linked [4]: 0.94 nM
- NFκB luciferase reporter, 4-1BB+ HEK293; fluorescence multiple vs human IgG; cross-linked; Ab 0.00013 ug/ml [4]: 0.9 fold
- NFκB luciferase reporter, 4-1BB+ HEK293; fluorescence multiple vs human IgG; cross-linked; Ab 0.00064 ug/ml [4]: 1.15 fold
- NFκB luciferase reporter, 4-1BB+ HEK293; fluorescence multiple vs human IgG; cross-linked; Ab 0.0032 ug/ml [4]: 1.1 fold
- NFκB luciferase reporter, 4-1BB+ HEK293; fluorescence multiple vs human IgG; cross-linked; Ab 0.016 ug/ml [4]: 2.35 fold
- NFκB luciferase reporter, 4-1BB+ HEK293; fluorescence multiple vs human IgG; cross-linked; Ab 0.08 ug/ml [4]: 3.3 fold
- NFκB luciferase reporter, 4-1BB+ HEK293; fluorescence multiple vs human IgG; cross-linked; Ab 0.4 ug/ml [4]: 3.6 fold
- NFκB luciferase reporter, 4-1BB+ HEK293; fluorescence multiple vs human IgG; cross-linked; Ab 2 ug/ml [4]: 5.55 fold
- NFκB luciferase reporter, 4-1BB+ HEK293; fluorescence multiple vs human IgG; cross-linked; Ab 10 ug/ml [4]: 4.3 fold
- NFκB luciferase reporter, 4-1BB+ HEK293; fluorescence multiple vs human IgG; non-cross-linked; Ab 0.00013 ug/ml [4]: 0.95 fold
- NFκB luciferase reporter, 4-1BB+ HEK293; fluorescence multiple vs human IgG; non-cross-linked; Ab 0.00064 ug/ml [4]: 0.9 fold
- NFκB luciferase reporter, 4-1BB+ HEK293; fluorescence multiple vs human IgG; non-cross-linked; Ab 0.0032 ug/ml [4]: 1.4 fold
- NFκB luciferase reporter, 4-1BB+ HEK293; fluorescence multiple vs human IgG; non-cross-linked; Ab 0.016 ug/ml [4]: 1.4 fold
- NFκB luciferase reporter, 4-1BB+ HEK293; fluorescence multiple vs human IgG; non-cross-linked; Ab 0.08 ug/ml [4]: 2.7 fold
- NFκB luciferase reporter, 4-1BB+ HEK293; fluorescence multiple vs human IgG; non-cross-linked; Ab 0.4 ug/ml [4]: 3.5 fold
- NFκB luciferase reporter, 4-1BB+ HEK293; fluorescence multiple vs human IgG; non-cross-linked; Ab 2 ug/ml [4]: 5 fold
- NFκB luciferase reporter, 4-1BB+ HEK293; fluorescence multiple vs human IgG; non-cross-linked; Ab 10 ug/ml [4]: 7.5 fold
- Kd [5]: 21.5 nM
- koff [5]: 0.0124 s⁻¹
- kon [5]: 574000 M⁻¹ s⁻¹
- EC50 (read off the curve) [2]: ~0.1 µg/mL
- OD450 nm [1]: 0.1 OD450 nm

From patent US20200347144A1 (SHANGHAI HYAMAB BIOTECH, published 2020)
